Source: a protein production outcome set (Wang et al. 2014)

Test: label from the status in PepcDB records

Row | Sequence | protein production
1 | MSPDLIPHQKSLSPSYLVFCDVDETLIRCKSGPEFLRHYFEFRHGAEGARRTEELLADLYARLARGLPRDEANREYHRAWRRCPVDEVEDRARHWYRERSRAADFYITATVDALRRHRAEGGAVALVSGSFPPLLPLVAEEVGAQYVLGARLERCGRVLTGELLGLPAIGDGKRVLARELLARHPHIDPADCYAYGDHPSDLPMLHMVGHATLVTPDGTHAPVKPAALT | failed
2 | MSPDSCPLVKNILLLDSEGKRVAVKYYSDDWPTNAAKLSFEKYVFSKTSKTNARTEAEITLLDSNIIVYKFAQDLHFFVTGGENENELILASVLQGFFDAVALLLRSNVEKMEALENLDLIFLCLDEMVDQGVVLETDPNVIAGKVAMQSTEASGSLSEQTLTQALATAREHLARSLLT | failed
3 | MSPFESMEKFPHLLVLDFDGVLCDGLQEYFQTSCQVCRQIWPDLPREKLDRQRDNFYFLRPVIETGWEMPLLLKALATGVEPAAIEAAWPAVAQTLQRQEQIGKSQLAPVLDQVRDNYIHNDLAYWLGLHHFYPGVIGQLNHWLQSPYPQWLYVVTTKEGRFVQQLLKNQKVDFPLGQIIGKEIKQPKFKTLEQLRVKHQCDGDRLWFVEDMLT | failed
4 | MSPIVTAILVASNLGLIFLLMTVPLGLRTVRVSRVIAMDRGRLWQALWPLGSDAGWSGEILSAEPLDGEGVSRIMLSWEGRDGEPIERRARFDDVVEGSRFSMRVLEDTALDASFWKDYRETAELVSEGSGTRVTLGRTDRYRGVAFLVFRYFAMRRELSKLQRWAMTGQYRKGGWFEHPLSQVGFAVLSALILWPFFGLHLGGLALAAILTSVVALHELGHMAAFRLMGHRKARMIFIPLLGGIAIGGRPYNSRFEVAFVALMGAGFSAFLVPIAIAASAFAGSEGHKAAAALLAALAGCAALFNIANLVPVWKFDGGQVLRQICPGPVALALASFFLLSAFLAVGWEAGFSSGFLLATGAVFSILSLLTMGSGVKPRYELKPIRTVDRFAIAGALLAVFVIHGCGVLWASAQLL | failed
5 | MSPKTTKKIAILTSGGDAPGMNATLVYLTRYATSSEIEVFFVKNGYYGLYHDELVPAHQLDLSNSLFSAGTVIGSKRFVEFKELKVREQAAQNLKKRQIDYLVVIGGDGSYMGAKLLSELGVNCYCLPGTIDNDINSSEFTIGFLTALESIKVNVQAVYHTTKSHERVAIVEVMGRHCGDLAIFGALATNADFVVTPSNKMDLKQLESAVKKILQHQNHCVVIVSENIYGFDGYPSLTAIKQHFDANNMKCNLVSLGHTQRGFAPTSLELVQISLMAQHTINLIGQNKVNQVIGNKANVPVNYDFDQAFNMPPVDRSALIAVINKNII | failed
6 | MSPLILMITAGAGIALLLFLVLKYKFQPFVALMLVSILVALVAGVKPAELVATIEGGMGKTLGHIAIIIALGAMIGRIIELSGGAEALAKTLIERFGNRRTPLALTMAGFIIGVPVFFEVGVIILMPLAYGVARSARKPLLVFALPMCAALLTVHAFLPPHPGAVAAASQLGADLGRVLMFGLPLTALLCYVGYRVAGRMTRRNYPMTDDIRAEVYGPHVTNEDLAAWNNGSEQPASPQAVAAVAHMGLEESTGSLAAKLPPAPPPGFGLIVSLILLPIVLILLGTLATSLLPLESTLRGVLTVLGAPLVALLLDTLLCAWLLGSRRGWSRSQVSDVIGSALPGVAMVILIAGAGGVFGKVLVDTGIGAVVSDLLRTTGLPVLALGFLLTMLLRAVQGSTTVALVTTAGIIAPLIATLNLSPNHMALLCLAMGGGGLAMSHINDAGYWIFTKLAGLNVADGLRTWTVITTLLGTLGFCITLLIWPFV | failed
7 | MSPMRIGLVCIRGSVPAFENFGFLPTDIVGSNGLVNGSRAHRVLDGIIIPGGSIVESGSLSPELAFEIRRMASDGKFVLGICSGFQALAERTDIGRKSPCPVYREGLGLLNVTFHPMISNDRVEATITGESFLTSGMSGERITGFHCHTYGEIRGDAPEIMKSRIVRADYHERPGEILSGVCSDDGNVAGTMVHGCLDENQTLVSNILKFLDADETARERILEANRKLREALRSELGISTGIRVMDRGGTRGTPPAIMIASTGSDSGKTFILTGLAGALRRRGLRVGVIKVGPDVRDIVPALYLIKEPMEEHSSIRIGRLGWMELRDVLESVRGRYDIILIEGVMSILTGLLNDITPYSGAEIALAAGIPLIMVAGCSKGGIESAVVDLDAHISVLEGLGLEVSCGILNRVYDMDIFERASGGRYLAIPRVEMSERGGTPEVEIKLEDFCLKAMETVEEHLDVDTLISFAKKPEFRGYMGPEEIKKVFSPLEHHHHHH | failed
8 | MSPQSMLTSPQHPRRTTMVISHGTLSASAEHAAHLRQLLVHIAQATRQEDGCLLYLVSEDLSQPGHFLITEHWDNLGAMHTHLALPGVTQAIDALKHLNVTDLKITAYEAGEAINIMG | not failed
